The target in experiment [1] is T1, myc tagged cyclin A (expressed alone or cotransfected in 293T cells) (UniProt P20248 1-432).
T1 construct: domain: full-length; also called myc-cyclin A; cyclin A alone; not shown: myc tag
The experiment is described as follows: cotransfection, IP-Western in 293T cells (FIG. 1A).

The target of experiment [2] is T2, insect cell-produced and purified GST-cyclin A/Cdk2 (kinase reactions, ~3 nM) (UniProt P20248 1-432; P24941 1-298). The experiment is described as follows: cell-based or functional assay.
The target in experiment [3] is T2, insect cell-produced and purified …. The experiment is described as follows: kinase inhibition: purified proteins, ~3 nM GST-cyclin A/Cdk2, Rb-C phosphorylation, non-linear least squares (FIG. 7F).
Experiment [4] concerns the target T3, cyclin A 309-432 fragment (C-terminal cyclin-fold and the C-terminus) (UniProt P20248 309-432).
T3 construct: In transfected 293T cell extract; not shown: myc tag
Briefly: GST pull-down with transfected 293T extracts (FIG. 4C).

The target of experiment [5] is cyclin D1/Cdk4 (transfected 293T cell extracts) (UniProt P24385 1-295; P11802 1-303). Briefly: GST pull-down with transfected 293T extracts (FIG. 4E).
Experiment [6] deals with Cdk2 alone (singly transfected 293T cell extract) (UniProt P24941 1-298). The experiment is described as follows: GST pull-down with singly transfected 293T extracts (FIG. 4A).
Experiment [7] has as its target myc-cyclin A/Cdk2 (293T cell extracts transfected with myc-cyclin A and Cdk2) (UniProt P20248 1-432; P24941 1-298). Briefly: GST pull-down with myc-cyclin A/Cdk2 transfected 293T extracts (FIG. 3C).
Experiment [8] addresses cellular cyclin A (endogenous, U2OS cells; associated with Cdk2) (human, UniProt P20248 1-432). Briefly: cell-based or functional assay.
The target of experiment [9] is T1, myc tagged cyclin A (expressed alone or …). Briefly: IP-Western with transfected 293T cell extracts (FIG. 1E).
The target of experiment [10] is T4, Skp1, Cul-1 and myc-Roc1 (SCF subunits co-expressed with flag-Skp2 in 293T cells) (UniProt P63208 1-163; Q13616 1-776; P62877 1-108).
T4 construct: The three other subunits of the SCF complex, co-immunoprecipitated via the flag tag on Skp2; also called Skp1-Cul1-Roc1; SCF^Skp2Roc1 complex subunits; not shown: myc tag
Briefly: co-expression in 293T cells, anti-flag IP-Western (FIG. 2A).

This is an account of results in patent publication US8173604 (ALBERT EINSTEIN COLLEGE OF MEDICINE OF YESHIVA UNIVERSITY, dated 2012).

Where a chain is given by its changes, count along the chain named.

cyclin D1/Cdk4 (transfected 293T cell extracts), sequence (P24385 whole entry, chain 1 of 2): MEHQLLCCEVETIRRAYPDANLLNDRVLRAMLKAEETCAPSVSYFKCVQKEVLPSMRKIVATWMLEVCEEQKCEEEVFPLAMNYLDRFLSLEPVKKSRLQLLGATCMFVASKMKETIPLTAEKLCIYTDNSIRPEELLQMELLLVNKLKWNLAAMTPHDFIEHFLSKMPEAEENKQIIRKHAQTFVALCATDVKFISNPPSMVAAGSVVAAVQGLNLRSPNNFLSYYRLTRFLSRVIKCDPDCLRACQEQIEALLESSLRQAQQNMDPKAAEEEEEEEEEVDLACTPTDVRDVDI
cyclin D1/Cdk4 (transfected 293T cell extracts), sequence (P11802 whole entry, chain 2 of 2): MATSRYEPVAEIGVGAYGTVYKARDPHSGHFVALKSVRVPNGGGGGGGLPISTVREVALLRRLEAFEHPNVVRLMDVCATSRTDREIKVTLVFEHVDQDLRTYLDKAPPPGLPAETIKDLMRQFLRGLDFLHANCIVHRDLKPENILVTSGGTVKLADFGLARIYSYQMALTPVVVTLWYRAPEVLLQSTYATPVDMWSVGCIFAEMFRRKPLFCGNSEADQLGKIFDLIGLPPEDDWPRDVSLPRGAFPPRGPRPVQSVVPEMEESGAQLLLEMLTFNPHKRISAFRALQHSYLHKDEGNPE
T4 sequence (P63208 whole entry, chain 1 of 3): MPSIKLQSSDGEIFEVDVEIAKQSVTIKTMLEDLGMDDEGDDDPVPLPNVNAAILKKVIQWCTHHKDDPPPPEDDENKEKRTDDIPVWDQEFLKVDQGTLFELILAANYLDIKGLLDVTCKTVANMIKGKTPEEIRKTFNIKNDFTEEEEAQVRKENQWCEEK
T4 sequence (Q13616 whole entry, chain 2 of 3): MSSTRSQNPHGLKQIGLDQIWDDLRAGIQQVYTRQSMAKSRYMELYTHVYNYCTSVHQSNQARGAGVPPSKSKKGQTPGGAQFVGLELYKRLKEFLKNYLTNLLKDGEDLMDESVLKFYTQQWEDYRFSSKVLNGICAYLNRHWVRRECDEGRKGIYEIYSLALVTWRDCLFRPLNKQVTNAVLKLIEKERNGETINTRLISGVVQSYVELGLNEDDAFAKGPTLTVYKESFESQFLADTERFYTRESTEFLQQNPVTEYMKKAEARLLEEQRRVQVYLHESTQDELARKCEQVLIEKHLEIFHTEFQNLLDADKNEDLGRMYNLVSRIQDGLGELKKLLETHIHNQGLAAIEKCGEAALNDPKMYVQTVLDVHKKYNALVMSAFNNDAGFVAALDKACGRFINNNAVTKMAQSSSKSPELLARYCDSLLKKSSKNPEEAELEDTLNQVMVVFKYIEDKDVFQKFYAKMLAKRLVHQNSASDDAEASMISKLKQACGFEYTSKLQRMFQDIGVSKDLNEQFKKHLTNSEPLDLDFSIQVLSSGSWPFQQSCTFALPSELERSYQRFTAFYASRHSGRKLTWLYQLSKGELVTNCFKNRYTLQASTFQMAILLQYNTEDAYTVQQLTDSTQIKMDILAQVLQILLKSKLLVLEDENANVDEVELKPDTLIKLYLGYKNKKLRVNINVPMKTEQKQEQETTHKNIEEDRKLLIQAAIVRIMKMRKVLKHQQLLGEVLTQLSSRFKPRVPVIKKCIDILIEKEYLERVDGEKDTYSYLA
T4 sequence (P62877 whole entry, chain 3 of 3): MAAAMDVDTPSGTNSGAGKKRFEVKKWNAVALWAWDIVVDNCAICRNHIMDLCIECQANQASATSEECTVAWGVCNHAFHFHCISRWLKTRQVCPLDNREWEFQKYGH

B1: Skp2LRR (C-terminal fragment of Skp2 divided at residue 150) (other)
chain: TLDLTGKNLHPDVTGRLLSQGVIAFRCPRSFMDQPLAEHFSPFRVQDMDLSNSVIEVSTLHGILSQCSKLQNLSLELRLSDPIVNTLAKNSNLVRLNLPGCPGFPKFPLQTFLSSCPRLDELNLSWCFNFTEKHVQVAVAHVSETMTQLNLSGYRKNLQKSDLSTLVRRCPNLVHLDLSNSVMLKNDCFQEFSQLNYLQHLSLSRCYDIIPETLLELGEIPTLKTLQVFGIVPDGTLQLLKEALPHLQINCSHFTTIARPTIGNKKNQEIWGIKCRLTLQKPSCL
notes: also called LRR fragment
Turning to B1, the binding result in [1] is on record as “no binding”.

B2: Skp2N (eluted, GST cleaved off by thrombin) (other)
chain: MHVFKTPGPADAMHRKHLQEIPDLSSNVATSFTWGWDSSKTSELLSGMGVSALEKEEPDSENIPQELLSNLGHPESPPRKRLKSKGSDKDFVIVRRPKLN
notes: also called eluted and GST cleaved Skp2N; Skp2 N-terminus
Regarding B2, in experiment [2], the “Ki of p27 for cyclin A/Cdk2 kinase activity (Rb-C phosphorylation) in the presence of 80 nM of Skp2N” value was around 0.08 µM. Besides, in experiment [3], the Ki was around 0.52 µM.

B3: GST-Skp2N (Skp2 N-terminus cloned into pGEX-2T) (other)
chain: B2 chain
notes: not shown: glutathione S-transferase (GST) moiety of vector pGEX-2T, N-terminal fusion partner
Regarding B3, the binding result in experiment [4], in experiment [5] and in experiment [6] was “no binding” throughout.

B4: GST-Skp2N-AAA53 (other)
chain: B2 chain with S51A, L53A
notes: Residue 52 is already alanine; not shown: glutathione S-transferase (GST) moiety of vector pGEX-2T, N-terminal fusion partner
On to B4, for which the binding result in experiment [7] is listed as “no binding”.

B5: GST-Skp2N-AA45 (other)
chain: B2 chain with L44A, L45A
notes: as for B3
As for B5, the binding result in [7] is given as “no binding”. Turning to YGRKKRRQRRRGPVKRRLDL [TAT-LDL peptide (TAT fused to the E2F1-derived LDL peptide)], the “in vitro cyclin A/Cdk2 kinase activity towards GST-Rb-C” value in experiment [2] came out at 10 fold. In [8], the “IC50 of U2OS cell killing (MTS assay, 24 hours)” value turned out to be 7.5 µM.

On to YGRKKRRQRRRGKTSELLSGMGVSALEKEE [TAT-4060 peptide (HIV TAT domain fused to the 4060 peptide with a glycine linker)], for which the “IC50 of U2OS cell killing (MTS assay, 24 hours)” value in experiment [8] amounted to 35 µM.

B6: Skp2AAAA (full-length Skp2 with the four conserved residues of the 40-60 sequence mutated to alanine, flag tagged) (other)
chain: MHVFKTPGPADAMHRKHLQEIPDLSSNVATSFTWGWDSSKTSEAASGMGVAAAEKEEPDSENIPQELLSNLGHPESPPRKRLKSKGSDKDFVIVRRPKLNRENFPGVSWDSLPDELLLGIFSCLCLPELLKVSGVCKRWYRLASDESLWQTLDLTGKNLHPDVTGRLLSQGVIAFRCPRSFMDQPLAEHFSPFRVQDMDLSNSVIEVSTLHGILSQCSKLQNLSLELRLSDPIVNTLAKNSNLVRLNLPGCPGFPKFPLQTFLSSCPRLDELNLSWCFNFTEKHVQVAVAHVSETMTQLNLSGYRKNLQKSDLSTLVRRCPNLVHLDLSNSVMLKNDCFQEFSQLNYLQHLSLSRCYDIIPETLLELGEIPTLKTLQVFGIVPDGTLQLLKEALPHLQINCSHFTTIARPTIGNKKNQEIWGIKCRLTLQKPSCL
notes: also called Skp2AAAA mutant; flag tagged Skp2AAAA; not shown: flag tag
B6: the binding result in [9] is on record as “no binding”; in experiment [10] it was “binds”.

B7: Skp2NF (N-terminal fragment of Skp2 divided at residue 150) (other)
chain: MHVFKTPGPADAMHRKHLQEIPDLSSNVATSFTWGWDSSKTSELLSGMGVSALEKEEPDSENIPQELLSNLGHPESPPRKRLKSKGSDKDFVIVRRPKLNRENFPGVSWDSLPDELLLGIFSCLCLPELLKVSGVCKRWYRLASDESLWQ
notes: also called NF fragment
In the case of B7, in experiment [1], the binding result is listed as “binds”.

In general, Ki refers to the dissociation constant of the complex between target and ligand, obtained from inhibition or displacement. A high value points to lower affinity.
